Target: the molecule itself
Assay: SEC

B1: IBV-N218-329, recombinant C-terminal domain (residues 218-329) of the IBV nucleocapsid protein (domain or fragment, UniProt P69596 218-329, looked up)
chain: KADEMAHRRYCKRTIPPNYRVDQVFGPRTKGKEGNFGDDKMNEEGIKDGRVTAMLNLVPSSHACLFGSRVTPKLQLDGLHLRFEFTTVVPCDDPQFDNYVKICDQCVDGVGT
  stoichiometry N: 2

Source: article PMC7126683 (Structure (London, England : 1993), 2005)
